Laboratory results as given in US20200157212A1 (Pfizer, published 2020).

Target: T1, Terbium (Tb) labeled-SNAP tagged ROBO2 expressed on HEK293 cells (Homo sapiens (Human), UniProt Q9HCK4 22-1378, terbium label on the SNAP tag)
T1 construct: also called Tb-labeled ROBO2 cells; ROBO2 expressing cells; not shown: SNAP tag
T1 sequence: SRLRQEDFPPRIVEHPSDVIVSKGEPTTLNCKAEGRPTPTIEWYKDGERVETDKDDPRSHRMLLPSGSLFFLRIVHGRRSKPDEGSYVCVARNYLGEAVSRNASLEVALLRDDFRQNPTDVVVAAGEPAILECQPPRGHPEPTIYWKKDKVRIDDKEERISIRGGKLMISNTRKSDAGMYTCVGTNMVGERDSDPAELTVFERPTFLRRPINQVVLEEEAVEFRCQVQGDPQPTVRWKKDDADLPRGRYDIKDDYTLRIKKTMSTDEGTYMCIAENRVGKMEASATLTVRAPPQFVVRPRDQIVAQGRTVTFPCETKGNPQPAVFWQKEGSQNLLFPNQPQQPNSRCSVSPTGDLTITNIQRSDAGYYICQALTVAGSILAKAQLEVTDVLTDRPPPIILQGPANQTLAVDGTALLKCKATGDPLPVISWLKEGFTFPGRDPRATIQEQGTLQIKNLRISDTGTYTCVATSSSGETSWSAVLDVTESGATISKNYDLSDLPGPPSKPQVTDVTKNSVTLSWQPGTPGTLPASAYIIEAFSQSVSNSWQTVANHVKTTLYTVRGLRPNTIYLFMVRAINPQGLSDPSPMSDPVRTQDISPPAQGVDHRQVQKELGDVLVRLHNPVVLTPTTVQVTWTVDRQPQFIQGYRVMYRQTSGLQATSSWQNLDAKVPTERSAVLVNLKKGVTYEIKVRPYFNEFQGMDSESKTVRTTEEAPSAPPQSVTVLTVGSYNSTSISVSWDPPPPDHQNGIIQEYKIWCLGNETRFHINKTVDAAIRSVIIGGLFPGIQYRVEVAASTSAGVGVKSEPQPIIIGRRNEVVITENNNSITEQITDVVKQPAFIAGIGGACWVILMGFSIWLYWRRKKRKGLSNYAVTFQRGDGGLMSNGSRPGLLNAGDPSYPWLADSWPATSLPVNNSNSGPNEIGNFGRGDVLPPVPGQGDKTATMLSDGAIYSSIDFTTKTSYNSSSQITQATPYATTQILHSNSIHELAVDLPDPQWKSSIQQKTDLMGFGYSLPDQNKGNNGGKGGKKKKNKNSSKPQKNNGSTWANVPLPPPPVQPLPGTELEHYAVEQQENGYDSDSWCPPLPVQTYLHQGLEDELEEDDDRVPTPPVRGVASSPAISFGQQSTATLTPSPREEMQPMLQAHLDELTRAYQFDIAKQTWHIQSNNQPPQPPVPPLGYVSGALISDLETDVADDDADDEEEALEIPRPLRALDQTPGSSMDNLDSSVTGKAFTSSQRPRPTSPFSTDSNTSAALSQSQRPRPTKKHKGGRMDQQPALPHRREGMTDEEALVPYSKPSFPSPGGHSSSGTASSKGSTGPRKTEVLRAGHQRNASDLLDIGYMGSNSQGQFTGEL
Assay: HTRF, 5 nM d2-SLIT2-N on Tb-SNAP-ROBO2 HEK293 cells, no antibody (maximal signal)
Description: In this assay, terbium (Tb) labeled-SNAP tagged ROBO2 expressing HEK293 cells were incubated with 5 nM d2-labeled SLIT-2N in the presence of 1 nM anti-ROBO2 antibodies for 1 hour. After incubation, fluorescence at 665 nm and 620 nm was measured on an Envision multilabel plate reader. […] Maximal signal was defined as the HTRF ratio of Tb-labeled ROBO2 cells with d2-labeled SLIT2-N in the absence of antibody, the minimum signal was defined as the HTRF ratio of Tb-labeled ROBO2 expressing HEK293 cells only. One nanomolar (nM) parental antibody, 93H2, was unable to block the HTRF assay, therefore this concentration was selected to identify clones with a higher affinity than 93H2 (Table 2, HTRF Ratio column). […] Antibodies derived from chain (Abcs series) or CDR shuffling (CTIR-2 series) were evaluated in 11-point, 5-fold dilution series with a top concentration of 1500 nM (Table 2 HTRF IC₅₀).
HTRF assays were run with 5 nM d2-labeled SLIT2-N and antibodies were added at 1 nM. […] Antibodies derived from chain (Abcs series) or CDR shuffling (CTIR-2 series) were evaluated in 11-point, 5-fold dilution series with a top concentration of 1500 nM, N.T. = not tested; ^cFold selectivity was calculated as Geometric Mean Fluorescent Intensity (Geo MFI) of ROBO2/Geo MFI of ROBO1 binding.

HTRF Ratio: 11900
B1: SLIT2-N (ligand)
chain: QCSCSGSTVDCHGLALRSVPRNIPRNTERLDLNGNNITRITKTDFAGLRHLRVLQLMENKISTIERGAFQDLKELERLRLNRNHLQLFPELLFLGTAKLYRLDLSENQIQAIPRKAFRGAVDIKNLQLDYNQISCIEDGAFRALRDLEVLTLNNNNITRLSVASFNHMPKLRTFRLHSNNLYCDCHLAWLSDWLRQRPRVGLYTQCMGPSHLRGHNVAEVQKREFVCSGHQSFMAPSCSVLHCPAACTCSNNIVDCRGKGLTEIPTNLPETITEIRLEQNTIKVIPPGAFSPYKKLRRIDLSNNQISELAPDAFQGLRSLNSLVLYGNKITELPKSLFEGLFSLQLLLLNANKINCLRVDAFQDLHNLNLLSLYDNKLQTIAKGTFSPLRAIQTMHLAQNPFICDCHLKWLADYLHTNPIETSGARCTSPRRLANKRIGQIKSKKFRCSAKEQYFIPGTEDYRSKLSGDCFADLACPEKCRCEGTTVDCSNQKLNKIPEHIPQYTAELRLNNNEFTVLEATGIFKKLPQLRKINFSNNKITDIEEGAFEGASGVNEILLTSNRLENVQHKMFKGLESLKTLMLRSNRITCVGNDSFIGLSSVRLLSLYDNQITTVAPGAFDTLHSLSTLNLLANPFNCNCYLAWLGEWLRKKRIVTGNPRCQKPYFLKEIPIQDVAIQDFTCDDGNDDNSCSPLSRCPTECTCLDTVVRCSNKGLKVLPKGIPRDVTELYLDGNQFTLVPKELSNYKHLTLIDLSNNRISTLSNQSFSNMTQLLTLILSYNRLRCIPPRTFDGLKSLRLLSLHGNDISVVPEGAFNDLSALSHLAIGANPLYCDCNMQWLSDWVKSEYKEPGIARCAGPGEMADKLLLTTPSKKFTCQGPVDVNILAKCNPCLSNPCKNDGTCNSDPVDFYRCTCPYGFKGQDCDVPIHACISNPCKHGGTCHLKEGEEDGFWCICADGFEGENCEVNVDDCEDNDCENNSTCVDGINNYTCLCPPEYTGELCEEKLDFCAQDLNPCQHDSKCILTPKGFKCDCTPGYVGEHCDIDFDDCQDNKCKNGAHCTDAVNGYTCICPEGYSGLFCEFSPPMVLPRTSPCDNFDCQ
modifications: d2 label in the HTRF assay
notes: also called d2-labeled SLIT2-N
